The source of these data is paper PMC9482650, “Quantitative fragmentomics allow affinity mapping of interactomes” (Nature Communications, 2022).

Some targets named below: MAST2, Q6P0Q8; Inadl_6, Q8NI35; CASK, O14936; MAGI2_5, Q86UL8; DLG1_3, Q12959; GIPC2, Q8TF65; GRIP2_6, Q9C0E4; GORASP1, Q9BQQ3; FRMPD2_1, Q68DX3; SCRIB_1, Q14160; Inadl_1, Q8NI35.
Common to all, as to assay: holdup assay
What all share (parameters): key: below the threshold = too weak to quantify, mostly under pKd 3.1 to 4

The target of the next assay is T1, PDZRN3_1, Q9UPQ7.
T1 sequence (Q9UPQ7 244-349, limits assumed, looked up): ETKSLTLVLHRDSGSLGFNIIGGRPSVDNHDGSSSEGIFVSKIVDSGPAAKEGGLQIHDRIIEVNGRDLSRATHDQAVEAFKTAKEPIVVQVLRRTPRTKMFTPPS

Another assay concerns the target T2, DFNB31_3, Q9P202.
T2 sequence (Q9P202 811-907, limits assumed, looked up): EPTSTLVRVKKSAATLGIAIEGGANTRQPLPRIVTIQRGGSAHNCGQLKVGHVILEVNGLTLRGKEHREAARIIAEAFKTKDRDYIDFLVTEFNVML

The target in the next assay is T3, RAPGEF6, Q8TEU7.
T3 sequence (Q8TEU7 525-625, limits assumed, looked up): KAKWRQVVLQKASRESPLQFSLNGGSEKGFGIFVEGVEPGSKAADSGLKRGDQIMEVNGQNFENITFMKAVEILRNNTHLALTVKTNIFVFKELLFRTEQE

A further assay has as its target T4, GRIP1_4, Q9Y3R0.
T4 sequence (Q9Y3R0 467-571, limits assumed, looked up): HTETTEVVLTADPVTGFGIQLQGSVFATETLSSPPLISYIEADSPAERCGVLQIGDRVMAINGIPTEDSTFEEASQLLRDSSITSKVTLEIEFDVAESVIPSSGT

Another assay has as its target T5, GRIP1_5, Q9Y3R0.
T5 sequence (Q9Y3R0 568-668, limits assumed, looked up): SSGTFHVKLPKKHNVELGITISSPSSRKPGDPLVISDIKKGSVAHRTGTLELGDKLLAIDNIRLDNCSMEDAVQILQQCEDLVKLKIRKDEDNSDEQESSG

The target in another assay is T6, APBA2_1, Q99767.
T6 sequence (Q99767 563-664, limits assumed, looked up): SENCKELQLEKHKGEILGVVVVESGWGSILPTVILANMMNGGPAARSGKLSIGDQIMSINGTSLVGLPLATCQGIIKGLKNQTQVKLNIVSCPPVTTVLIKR

In a further assay the target is T7, HTRA3, P83110.
T7 sequence (P83110 354-453, limits assumed, looked up): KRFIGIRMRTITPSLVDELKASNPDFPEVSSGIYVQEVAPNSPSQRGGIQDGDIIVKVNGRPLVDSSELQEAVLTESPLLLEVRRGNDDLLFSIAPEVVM

In the next assay the target is T8, SNTB1, Q13884.
T8 sequence (Q13884 107-205, limits assumed, looked up): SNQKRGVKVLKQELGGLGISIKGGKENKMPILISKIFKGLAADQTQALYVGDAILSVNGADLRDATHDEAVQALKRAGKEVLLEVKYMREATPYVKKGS

In another assay the target is T9, DFNB31_1, Q9P202.
T9 sequence (Q9P202 135-233, limits assumed, looked up): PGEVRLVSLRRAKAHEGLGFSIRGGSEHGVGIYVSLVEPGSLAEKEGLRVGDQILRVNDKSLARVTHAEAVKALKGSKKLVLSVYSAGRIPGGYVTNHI

For the next assay, the target named is T10, TX1BP3, O14907.
T10 sequence (O14907 10-122, limits assumed, looked up): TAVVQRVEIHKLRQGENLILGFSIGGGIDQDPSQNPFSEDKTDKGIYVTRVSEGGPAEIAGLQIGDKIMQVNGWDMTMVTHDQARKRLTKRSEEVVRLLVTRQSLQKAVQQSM

A further assay concerns the target T11, LIN7B, Q9HAP6.
T11 sequence (Q9HAP6 88-185, limits assumed, looked up): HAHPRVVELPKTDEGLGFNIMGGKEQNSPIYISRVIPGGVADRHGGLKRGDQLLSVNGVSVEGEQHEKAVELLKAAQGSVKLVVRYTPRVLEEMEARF

The target in the next assay is T12, ARHGEF11, O15085.
T12 sequence (O15085 42-136, limits assumed, looked up): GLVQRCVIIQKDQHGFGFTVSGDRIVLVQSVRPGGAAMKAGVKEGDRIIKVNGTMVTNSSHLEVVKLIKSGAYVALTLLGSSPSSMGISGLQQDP

In the next assay the target is T13, MPP7, Q5T2T1.
T13 sequence (Q5T2T1 134-230, limits assumed, looked up): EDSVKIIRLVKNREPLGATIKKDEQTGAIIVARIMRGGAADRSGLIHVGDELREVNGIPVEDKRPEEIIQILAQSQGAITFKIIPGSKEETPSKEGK

The mark [1] stands for this setting: plain residues with an end cap or a label only (N-terminal biotin on a linker: ahx).
Where [2] appears, read: plain residues with an end cap or a label only (N-terminal biotin on a linker: ado-ado).
Setting [3] is: plain residues with an end cap or a label only (N-terminal biotin on a linker: ttds).

Sequence of GIPC2, Q8TF65 (Q8TF65 112-203): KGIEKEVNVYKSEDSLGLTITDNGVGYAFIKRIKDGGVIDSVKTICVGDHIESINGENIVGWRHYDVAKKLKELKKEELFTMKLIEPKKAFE
Sequence of SCRIB_1, Q14160 (Q14160 718-814): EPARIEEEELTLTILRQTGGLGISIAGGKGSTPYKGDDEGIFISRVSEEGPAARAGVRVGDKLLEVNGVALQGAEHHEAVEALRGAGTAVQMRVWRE
Sequence of MAST2, Q6P0Q8 (Q6P0Q8 1099-1202): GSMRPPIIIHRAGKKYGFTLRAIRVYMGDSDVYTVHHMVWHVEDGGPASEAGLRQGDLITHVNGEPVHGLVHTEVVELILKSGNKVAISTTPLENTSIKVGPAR
Sequence of GORASP1, Q9BQQ3 (Q9BQQ3 1-208): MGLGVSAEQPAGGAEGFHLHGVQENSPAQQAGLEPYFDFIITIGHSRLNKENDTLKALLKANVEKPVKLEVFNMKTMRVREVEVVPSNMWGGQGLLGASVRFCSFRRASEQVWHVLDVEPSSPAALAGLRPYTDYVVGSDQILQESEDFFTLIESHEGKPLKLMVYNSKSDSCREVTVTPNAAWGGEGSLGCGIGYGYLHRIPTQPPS
Sequence of Inadl_6, Q8NI35 (Q8NI35 1058-1167): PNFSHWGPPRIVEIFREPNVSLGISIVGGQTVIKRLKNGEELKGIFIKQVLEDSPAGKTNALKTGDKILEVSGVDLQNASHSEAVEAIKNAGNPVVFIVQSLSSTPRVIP
Sequence of MAGI2_5, Q86UL8 (Q86UL8 915-1017): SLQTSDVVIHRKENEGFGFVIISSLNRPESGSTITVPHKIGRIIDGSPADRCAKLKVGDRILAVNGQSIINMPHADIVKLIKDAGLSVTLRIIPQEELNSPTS
Sequence of FRMPD2_1, Q68DX3 (Q68DX3 770-861): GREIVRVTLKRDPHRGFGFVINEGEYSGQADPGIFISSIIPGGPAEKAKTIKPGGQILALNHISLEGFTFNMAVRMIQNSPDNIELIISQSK
Sequence of GRIP2_6, Q9C0E4 (Q9C0E4 648-740): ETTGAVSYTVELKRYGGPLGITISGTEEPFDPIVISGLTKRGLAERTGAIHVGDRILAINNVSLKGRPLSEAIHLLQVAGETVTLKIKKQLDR
Sequence of Inadl_1, Q8NI35 (Q8NI35 113-229): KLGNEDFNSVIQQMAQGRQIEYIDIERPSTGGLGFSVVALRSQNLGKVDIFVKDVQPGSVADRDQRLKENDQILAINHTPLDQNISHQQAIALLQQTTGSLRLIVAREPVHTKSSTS
Sequence of CASK, O14936 (O14936 487-570): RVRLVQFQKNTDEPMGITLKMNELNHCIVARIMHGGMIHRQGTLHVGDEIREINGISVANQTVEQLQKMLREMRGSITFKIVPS
Sequence of DLG1_3, Q12959 (Q12959 457-571): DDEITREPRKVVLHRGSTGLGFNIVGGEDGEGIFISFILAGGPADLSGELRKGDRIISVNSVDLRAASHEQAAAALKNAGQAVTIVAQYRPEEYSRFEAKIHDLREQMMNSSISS

A word on the pKd: it is the Kd on a negative log10 scale, so that one unit is a factor of ten. HSATSVHTSV [MTMR1, Q13613]: the pKd result with PDZRN3_1, Q9UPQ7 (setting [1]) was “below the threshold”; in the assay with DFNB31_3, Q9P202 (setting [1]), “below the threshold”; in the assay with RAPGEF6, Q8TEU7 (setting [1]) it was “below the threshold”; with MAST2, Q6P0Q8 (setting [1]), 4.38; in the assay with GRIP1_4, Q9Y3R0 (setting [1]), “below the threshold”; in the assay with Inadl_6, Q8NI35 (setting [1]), “below the threshold”. The pKd entry in the assay with CASK, O14936 (setting [1]) is “below the threshold”; with GRIP1_5, Q9Y3R0 (setting [1]) it was “below the threshold”; with APBA2_1, Q99767 (setting [1]), “below the threshold”; in the assay with MAGI2_5, Q86UL8 (setting [1]), 4.02; in the assay with DLG1_3, Q12959 (setting [1]), 3.56; with GIPC2, Q8TF65 (setting [1]), “below the threshold”. Moreover, the negative logarithm of the Kd (pKd) entry with GRIP2_6, Q9C0E4 (setting [1]) was “below the threshold”; with GORASP1, Q9BQQ3 (setting [1]), “below the threshold”; with HTRA3, P83110 (setting [1]), “below the threshold”; in the assay with FRMPD2_1, Q68DX3 (setting [1]), “below the threshold”; with SNTB1, Q13884 (setting [1]), 3.78; in the assay with SCRIB_1, Q14160 (setting [1]), 3.79. Also, the pKd in the assay with DFNB31_1, Q9P202 (setting [1]) was 3.66; in the assay with TX1BP3, O14907 (setting [1]) it was 3.8; with LIN7B, Q9HAP6 (setting [1]) it was “below the threshold”; with ARHGEF11, O15085 (setting [1]), 3.75; in the assay with MPP7, Q5T2T1 (setting [1]), “below the threshold”; with Inadl_1, Q8NI35 (setting [1]) it was “below the threshold”.

Consider SQDPKKPSRV [CBY2, Q8NA61], for which the pKd with PDZRN3_1, Q9UPQ7 (setting [2]) is 3.56; with DFNB31_3, Q9P202 (setting [2]), “below the threshold”; with RAPGEF6, Q8TEU7 (setting [2]) it was “below the threshold”; with MAST2, Q6P0Q8 (setting [2]), “below the threshold”; in the assay with GRIP1_4, Q9Y3R0 (setting [2]), “below the threshold”; with Inadl_6, Q8NI35 (setting [2]), “below the threshold”. The pKd result is reported as “below the threshold” with CASK, O14936 (setting [2]); “below the threshold” in the assay with GRIP1_5, Q9Y3R0 (setting [2]); “below the threshold” with APBA2_1, Q99767 (setting [2]); “below the threshold” in the assay with MAGI2_5, Q86UL8 (setting [2]); “below the threshold” with DLG1_3, Q12959 (setting [2]); “below the threshold” with GIPC2, Q8TF65 (setting [2]). In addition, the pKd entry is given as “below the threshold” with GRIP2_6, Q9C0E4 (setting [2]); “below the threshold” in the assay with GORASP1, Q9BQQ3 (setting [2]); “below the threshold” in the assay with HTRA3, P83110 (setting [2]); “below the threshold” in the assay with FRMPD2_1, Q68DX3 (setting [2]); “below the threshold” in the assay with SNTB1, Q13884 (setting [2]); “below the threshold” with SCRIB_1, Q14160 (setting [2]). In addition, the pKd entry with DFNB31_1, Q9P202 (setting [2]) is reported as “below the threshold”; with TX1BP3, O14907 (setting [2]), “below the threshold”; with LIN7B, Q9HAP6 (setting [2]), “below the threshold”; in the assay with ARHGEF11, O15085 (setting [2]) it was “below the threshold”; with MPP7, Q5T2T1 (setting [2]) it was “below the threshold”; with Inadl_1, Q8NI35 (setting [2]) it was “below the threshold”.

For the molecule PSRDRKETSI [RALBP1, Q15311], the pKd in the assay with PDZRN3_1, Q9UPQ7 (setting [3]) is 4.37; in the assay with DFNB31_3, Q9P202 (setting [3]), “below the threshold”; with RAPGEF6, Q8TEU7 (setting [3]) it was “below the threshold”; with MAST2, Q6P0Q8 (setting [3]), 4.88; in the assay with GRIP1_4, Q9Y3R0 (setting [3]) it was “below the threshold”; in the assay with Inadl_6, Q8NI35 (setting [3]), “below the threshold”. Moreover, the pKd result in the assay with CASK, O14936 (setting [3]) is “below the threshold”; in the assay with GRIP1_5, Q9Y3R0 (setting [3]), “below the threshold”; with APBA2_1, Q99767 (setting [3]), “below the threshold”; with MAGI2_5, Q86UL8 (setting [3]), “below the threshold”; with DLG1_3, Q12959 (setting [3]), 4.28; with GIPC2, Q8TF65 (setting [3]) it was 3.58. The pKd with GRIP2_6, Q9C0E4 (setting [3]) was 3.36; in the assay with GORASP1, Q9BQQ3 (setting [3]) it was 3.38; with HTRA3, P83110 (setting [3]) it was “below the threshold”; with FRMPD2_1, Q68DX3 (setting [3]) it was “below the threshold”; with SNTB1, Q13884 (setting [3]), 3.97; with SCRIB_1, Q14160 (setting [3]), 4.49. For the same molecule, the pKd in the assay with DFNB31_1, Q9P202 (setting [3]) was 4.35; with TX1BP3, O14907 (setting [3]), 4.23; with LIN7B, Q9HAP6 (setting [3]), 3.49; with ARHGEF11, O15085 (setting [3]) it was “below the threshold”; with MPP7, Q5T2T1 (setting [3]), “below the threshold”; in the assay with Inadl_1, Q8NI35 (setting [3]), “below the threshold”.

In the case of DLDEEEDTHL [PODXL, O00592], the pKd result with PDZRN3_1, Q9UPQ7 (setting [3]) was “below the threshold”; with DFNB31_3, Q9P202 (setting [3]) it was “below the threshold”; with RAPGEF6, Q8TEU7 (setting [3]), 3.48; with MAST2, Q6P0Q8 (setting [3]), 5.31; in the assay with GRIP1_4, Q9Y3R0 (setting [3]), “below the threshold”; with Inadl_6, Q8NI35 (setting [3]) it was “below the threshold”. Moreover, the pKd entry is listed as “below the threshold” in the assay with CASK, O14936 (setting [3]); “below the threshold” with GRIP1_5, Q9Y3R0 (setting [3]); “below the threshold” with APBA2_1, Q99767 (setting [3]); “below the threshold” with MAGI2_5, Q86UL8 (setting [3]); “below the threshold” with DLG1_3, Q12959 (setting [3]); “below the threshold” in the assay with GIPC2, Q8TF65 (setting [3]). Also, the negative logarithm of the Kd (pKd) result in the assay with GRIP2_6, Q9C0E4 (setting [3]) is “below the threshold”; with GORASP1, Q9BQQ3 (setting [3]), “below the threshold”; in the assay with HTRA3, P83110 (setting [3]), “below the threshold”; in the assay with FRMPD2_1, Q68DX3 (setting [3]) it was “below the threshold”; with SNTB1, Q13884 (setting [3]) it was “below the threshold”; in the assay with SCRIB_1, Q14160 (setting [3]), 5.08. The pKd result in the assay with DFNB31_1, Q9P202 (setting [3]) is listed as “below the threshold”; with TX1BP3, O14907 (setting [3]) it was “below the threshold”; in the assay with LIN7B, Q9HAP6 (setting [3]) it was “below the threshold”; with ARHGEF11, O15085 (setting [3]) it was “below the threshold”; with MPP7, Q5T2T1 (setting [3]), “below the threshold”; in the assay with Inadl_1, Q8NI35 (setting [3]) it was “below the threshold”.
